In paper PMC11862925:

What was measured:
[1] = target: B.1.351 variant RBD (K417N, E484K, N501Y) (SARS-CoV-2) (UniProt P0DTC2); test: BLI
[2] = target: B.1.617.1/3 variant RBD (L452R, E484Q) (SARS-CoV-2) (UniProt P0DTC2); test: BLI

ACE2-COMP (from UniProt Q9BYF1 19-615; P35444 29-73)
percent of bound ACE2-COMP retained after 8 h of dissociation [1]: 90% | percent of bound ACE2-COMP retained after 8 h of dissociation [2]: 90%
